Biological target: Delta RBD WT (SARS-CoV-2, Delta variant (B.1.617.2), L452R)
Experiment: SPR; Biacore T200; […]; HBS-EP, 25 °C; 1:1 binding model
Settings: both partners purified

| Binder | Kd |
| --- | --- |
| casirivimab (antibody, V domains shown, source: Regeneron) VH: QVQLVESGGGLVKPGGSLRLSCAASGFTFSDYYMSWIRQAPGKGLEWVSYITYSGSTIYYADSVKGRFTISRDNAKSSLYLQMNSLRAEDTAVYYCARDRGTTMVPFDYWGQGTLVTVSS VL: DIQMTQSPSSLSASVGDRVTITCQASQDITNYLNWYQQKPGKAPKLLIYAASNLETGVPSRFSGSGSGTDFTFTISGLQPEDIATYYCQQYDNLPLTFGGGTKVEIK | 0.36 nM |
| imdevimab (antibody, V domains shown, source: Regeneron) VH: QVQLVESGGGVVQPGRSLRLSCAASGFTFSNYAMYWVRQAPGKGLEWVAVISYDGSNKYYADSVKGRFTISRDNSKNTLYLQMNSLRTEDTAVYYCASGSDYGDYLLVYWGQGTLVTVSS VL: QSALTQPASVSGSPGQSITISCTGTSSDVGGYNYVSWYQQHPGKAPKLMIYDVSKRPSGVSNRFSGSKSGNTASLTISGLQSEDEADYYCNSLTSISTWVFGGGTKLTVL | 9.4 nM |

Source: publication PMC10246534 (Nature Communications, 2023)
